Test results: US20130184442A1

Assays:
Assay in all cases: SPR (Biacore 2000), antibody immobilized on CM5 chip, Langmuir 1:1 model
[1] = target: anti FITC-BSA human IgG1 (monoclonal, BioInvent International AB)
[2] = target: anti FITC-BSA mouse IgG2a (monoclonal, BioInvent International AB)
[3] = target: polyclonal rabbit IgG

For “Zwt (recombinantly produced parental Z domain) (designed binder)”, the Kd [1] was 20 nM, the Kd [2] was 550 nM and the Kd [3] was 60 nM.
